Series [1] addresses T1, RsaA, wild-type S-layer protein monomer of C. crescentus.
T1 chain: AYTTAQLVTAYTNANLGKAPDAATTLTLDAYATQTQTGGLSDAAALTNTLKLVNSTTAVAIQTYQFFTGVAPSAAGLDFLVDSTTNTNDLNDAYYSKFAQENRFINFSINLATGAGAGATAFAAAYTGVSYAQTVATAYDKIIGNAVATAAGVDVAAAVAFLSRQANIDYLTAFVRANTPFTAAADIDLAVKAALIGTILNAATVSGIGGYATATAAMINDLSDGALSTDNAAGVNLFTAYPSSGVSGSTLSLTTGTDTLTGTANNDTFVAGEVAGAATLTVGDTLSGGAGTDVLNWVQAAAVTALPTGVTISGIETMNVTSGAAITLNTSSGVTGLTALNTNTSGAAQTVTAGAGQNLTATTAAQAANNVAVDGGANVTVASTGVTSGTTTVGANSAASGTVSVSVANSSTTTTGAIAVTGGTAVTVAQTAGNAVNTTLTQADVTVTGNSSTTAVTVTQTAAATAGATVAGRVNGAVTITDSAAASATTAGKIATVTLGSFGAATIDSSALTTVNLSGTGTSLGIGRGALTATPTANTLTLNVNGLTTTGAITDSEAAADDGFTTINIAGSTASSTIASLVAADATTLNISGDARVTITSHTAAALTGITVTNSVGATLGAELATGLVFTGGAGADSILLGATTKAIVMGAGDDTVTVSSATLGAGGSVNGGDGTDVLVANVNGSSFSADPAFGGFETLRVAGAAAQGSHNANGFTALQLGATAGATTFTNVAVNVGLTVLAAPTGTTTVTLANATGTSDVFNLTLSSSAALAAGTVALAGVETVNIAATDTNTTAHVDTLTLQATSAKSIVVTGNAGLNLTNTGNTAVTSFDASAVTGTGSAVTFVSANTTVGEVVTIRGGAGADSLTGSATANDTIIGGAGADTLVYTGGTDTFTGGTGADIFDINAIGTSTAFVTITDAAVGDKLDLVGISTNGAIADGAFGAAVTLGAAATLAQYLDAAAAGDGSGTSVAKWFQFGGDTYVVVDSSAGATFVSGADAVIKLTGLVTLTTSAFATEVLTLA

Series [2] has as its target RsaA(723/VP2C), RsaA with a 112 amino acid segment of the VP2 surface glycoprotein of infectious pancreatic necrosis virus inserted at amino acid 723.
Series [3] has as its target T2, RsaA(485/IHNVG20), full-length RsaA hybrid protein carrying the 20 amino acid IHNV-G peptide at amino acid 485.
T2 chain: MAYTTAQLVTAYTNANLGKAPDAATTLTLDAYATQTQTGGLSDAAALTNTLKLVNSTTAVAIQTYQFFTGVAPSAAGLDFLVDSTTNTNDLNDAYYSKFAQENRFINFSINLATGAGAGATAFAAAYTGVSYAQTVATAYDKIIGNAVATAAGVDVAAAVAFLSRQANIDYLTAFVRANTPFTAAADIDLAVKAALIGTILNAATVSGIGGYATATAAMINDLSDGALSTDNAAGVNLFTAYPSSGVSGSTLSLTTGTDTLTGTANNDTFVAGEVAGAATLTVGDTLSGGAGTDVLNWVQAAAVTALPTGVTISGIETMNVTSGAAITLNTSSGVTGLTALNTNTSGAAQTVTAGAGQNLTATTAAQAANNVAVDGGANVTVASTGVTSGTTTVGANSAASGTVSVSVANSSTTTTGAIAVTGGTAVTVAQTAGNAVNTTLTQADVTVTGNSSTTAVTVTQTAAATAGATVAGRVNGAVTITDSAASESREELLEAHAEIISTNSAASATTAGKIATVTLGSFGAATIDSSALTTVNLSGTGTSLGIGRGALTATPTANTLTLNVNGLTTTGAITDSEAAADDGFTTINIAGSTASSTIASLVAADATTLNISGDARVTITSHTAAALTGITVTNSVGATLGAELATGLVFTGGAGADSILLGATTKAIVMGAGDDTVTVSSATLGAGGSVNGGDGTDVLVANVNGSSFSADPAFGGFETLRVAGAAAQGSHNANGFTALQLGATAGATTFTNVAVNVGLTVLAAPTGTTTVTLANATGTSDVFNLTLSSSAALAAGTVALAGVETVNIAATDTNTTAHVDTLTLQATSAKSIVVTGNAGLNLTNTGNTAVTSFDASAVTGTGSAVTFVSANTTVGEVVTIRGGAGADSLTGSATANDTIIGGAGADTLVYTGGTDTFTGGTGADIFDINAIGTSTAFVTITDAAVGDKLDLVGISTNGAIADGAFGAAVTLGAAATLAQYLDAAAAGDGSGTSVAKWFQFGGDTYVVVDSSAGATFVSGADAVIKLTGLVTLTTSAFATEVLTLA

Series [4] addresses RsaA(723/3XPilin12), RsaA with a 3X tandemly repeated P. aeruginosa pilin epitope inserted at amino acid 723.

B1: Sap (S-layer associated protease), native Caulobacter crescentus metalloprotease (protein)
chain: MCSQCERYGLNLHGDDVAPAVSGGEGPYAFVDADSRVGTVDGKKSLTVPEAALQLLRSEPGWSNQFLVPATVTYAFRATAPASMPSDTGGFSQFNAAQILQAEKALQAWSDVANITFVRVGQGTSGEAAYSDNASILFANFSTGSEGSAGFAYYPGNPAASSRSGDVWIKSTAGYNTNPTGSNYGGMVLVHELGHAIGIAHPSEYNASADDTLTYAVNATYYQDSRQYTVMSYFSEANTGGSFGGAYASSPLLDDIAAAQLAYGANMTTRTGDTVYGFNSTAGREWFAATSSSTRLVFAVWDAGGVDTLDFSGYRVAQTIDLRAGYFSSVGGLKGNVTIAMNAVIENAIGGSAADTINGNAVDNRLTGGAGADILDGGRGVDTAVFSGAYGNYTLTAATNGAWSVLDRVGTDATDTLANIEFLAFTDRTVTLVDSRVATAISNILRLQTFSASAEPLSKSLAASMAAGASHSDAIGQVSKTALSTSGVAVLAYQFFTGKTPTAAGMDYLVNPDGVNANNLNSAYYQSFNLENRYINFAVNLGKIGEGATKFLADYGGLSLFDATRKAYATIFGLTPTDDKVRALIDGRTDYFAAYGQDGPNGQGTKAAMVGWLMAEAGKADIGVYAKSAGAFFADQATKNVYGVDLIGVYAKPEYNLI
Regarding B1, the “proteolytic cleavage (SDS-PAGE of low-pH extracts from Sap+ JS4000)” value in series [1] is reported as “Native RsaA (98 kDa) was not subjected to cleavage”. For the same protein, the “degradation of the hybrid protein in Sap+ JS4000 against Sap- JS4015 (SDS-PAGE of low-pH extracts)” value in series [2] and in series [4] was “In all instances significant degradation of the hybrid full-length rsaA protein occurred in a wild-type host (JS4000) while none was detected in the Sap^- JS4015 strain” each time. In addition, the “proteolytic phenotype (cleavage of the hybrid protein; SDS-PAGE of low-pH extracts, complementation of Sap- JS4015 with the sap gene)” value in series [3] was “When pBBR1MCS:Kmsap was introduced into JS4015, the proteolytic phenotype was restored”.
